Laboratory results taken from patent US20250361268A1, “NOVEL ANTI-INFLAMMATORY PEPTIDE AND USE THEREOF” (NOVACELL TECHNOLOGY INC., priority 2022, published 2025).

T1: formyl peptide receptor 2 (FPR2) (UniProt P25090 1-351, limits assumed)
T1 sequence (looked up): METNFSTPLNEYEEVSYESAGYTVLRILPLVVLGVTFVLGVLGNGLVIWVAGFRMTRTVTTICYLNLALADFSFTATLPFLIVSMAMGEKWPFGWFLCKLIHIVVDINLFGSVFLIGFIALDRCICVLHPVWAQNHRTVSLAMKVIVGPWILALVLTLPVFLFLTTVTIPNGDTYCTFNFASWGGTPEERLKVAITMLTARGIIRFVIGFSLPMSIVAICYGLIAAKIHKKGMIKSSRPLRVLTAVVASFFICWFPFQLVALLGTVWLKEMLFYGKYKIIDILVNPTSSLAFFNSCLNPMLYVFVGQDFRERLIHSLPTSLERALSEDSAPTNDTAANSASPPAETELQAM

T2: FPR1 (UniProt P21462 1-350, limits assumed)
T2 sequence (looked up): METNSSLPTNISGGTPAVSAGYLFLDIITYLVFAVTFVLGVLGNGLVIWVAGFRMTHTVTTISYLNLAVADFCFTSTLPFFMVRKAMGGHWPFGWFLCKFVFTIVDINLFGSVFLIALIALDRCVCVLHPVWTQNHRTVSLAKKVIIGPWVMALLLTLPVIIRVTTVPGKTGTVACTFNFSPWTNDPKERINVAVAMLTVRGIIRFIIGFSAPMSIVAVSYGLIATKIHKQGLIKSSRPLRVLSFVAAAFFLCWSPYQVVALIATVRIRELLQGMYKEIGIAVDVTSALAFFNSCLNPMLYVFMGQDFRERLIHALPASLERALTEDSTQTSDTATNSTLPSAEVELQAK


Experiments:
[1] = target: T1, formyl peptide receptor 2 (FPR2); test: cell-based or functional assay
FPR1 = target: T2, FPR1; test: cell-based or functional assay

Row | Binder | EC50 for [Ca2+] [1] [µM] | EC50 for [Ca2+] (FPR1) [µM]
1 | RWRYKYM (HELM PEPTIDE1{[ac].R.W.R.Y.K.Y.[dM].[am]}$$$$V2.0; SMILES CSCC[C@@H](NC(=O)[C@H](Cc1ccc(O)cc1)NC(=O)[C@H](CCCCN)NC(=O)[C@H](Cc1ccc(O)cc1)NC(=O)[C@H](CCCNC(=N)N)NC(=O)[C@H](Cc1c[nH]c2ccccc12)NC(=O)[C@H](CCCNC(=N)N)NC(C)=O)C(N)=O) [peptide of SEQ ID NO 33] | < 0.01 | > 10
2 | WRYKYM (HELM PEPTIDE1{W.R.Y.K.Y.[dM].[am]}$$$$V2.0; N-terminus assumed; SMILES CSCC[C@@H](NC(=O)[C@H](Cc1ccc(O)cc1)NC(=O)[C@H](CCCCN)NC(=O)[C@H](Cc1ccc(O)cc1)NC(=O)[C@H](CCCNC(=N)N)NC(=O)[C@@H](N)Cc1c[nH]c2ccccc12)C(N)=O) [peptide of SEQ ID NO 35] | < 0.01 | > 10
3 | RWRYRVM (HELM PEPTIDE1{R.W.R.Y.R.V.[dM].[am]}$$$$V2.0; N-terminus assumed; SMILES CSCC[C@@H](NC(=O)[C@@H](NC(=O)[C@H](CCCNC(=N)N)NC(=O)[C@H](Cc1ccc(O)cc1)NC(=O)[C@H](CCCNC(=N)N)NC(=O)[C@H](Cc1c[nH]c2ccccc12)NC(=O)[C@@H](N)CCCNC(=N)N)C(C)C)C(N)=O) [peptide of SEQ ID NO 29] | < 0.01 | > 10
4 | MKYKVM (HELM PEPTIDE1{[CCCC(=O)[*:2]].M.K.Y.K.V.[dM].[am]}$$$$V2.0; SMILES CCCC(=O)N[C@@H](CCSC)C(=O)N[C@@H](CCCCN)C(=O)N[C@@H](Cc1ccc(O)cc1)C(=O)N[C@@H](CCCCN)C(=O)N[C@H](C(=O)N[C@H](CCSC)C(N)=O)C(C)C) [peptide of SEQ ID NO 19] | < 0.01 | > 10
5 | HMKYKVM (HELM PEPTIDE1{[CCCC(=O)[*:2]].H.M.K.Y.K.V.[dM].[am]}$$$$V2.0; SMILES CCCC(=O)N[C@@H](Cc1c[nH]cn1)C(=O)N[C@@H](CCSC)C(=O)N[C@@H](CCCCN)C(=O)N[C@@H](Cc1ccc(O)cc1)C(=O)N[C@@H](CCCCN)C(=O)N[C@H](C(=O)N[C@H](CCSC)C(N)=O)C(C)C) [peptide of SEQ ID NO 23] | < 0.01 | > 10
6 | KWKYKYM (HELM PEPTIDE1{[ac].K.W.K.Y.K.Y.[dM].[am]}$$$$V2.0; SMILES CSCC[C@@H](NC(=O)[C@H](Cc1ccc(O)cc1)NC(=O)[C@H](CCCCN)NC(=O)[C@H](Cc1ccc(O)cc1)NC(=O)[C@H](CCCCN)NC(=O)[C@H](Cc1c[nH]c2ccccc12)NC(=O)[C@H](CCCCN)NC(C)=O)C(N)=O) [peptide of SEQ ID NO 36] | < 0.01 | > 10
7 | HMKYKVM (HELM PEPTIDE1{[ac].H.M.K.Y.K.V.[dM].[am]}$$$$V2.0; SMILES CSCC[C@H](NC(=O)[C@H](Cc1c[nH]cn1)NC(C)=O)C(=O)N[C@@H](CCCCN)C(=O)N[C@@H](Cc1ccc(O)cc1)C(=O)N[C@@H](CCCCN)C(=O)N[C@H](C(=O)N[C@H](CCSC)C(N)=O)C(C)C) [peptide of SEQ ID NO 22] | < 0.01 | > 10
8 | PMKYKVM (HELM PEPTIDE1{[CCCC(=O)[*:2]].P.M.K.Y.K.V.[dM].[am]}$$$$V2.0; SMILES CCCC(=O)N1CCC[C@H]1C(=O)N[C@@H](CCSC)C(=O)N[C@@H](CCCCN)C(=O)N[C@@H](Cc1ccc(O)cc1)C(=O)N[C@@H](CCCCN)C(=O)N[C@H](C(=O)N[C@H](CCSC)C(N)=O)C(C)C) [peptide of SEQ ID NO 27] | < 0.01 | > 10
9 | PMKYKVM (HELM PEPTIDE1{[CCCCCCCC(=O)[*:2]].P.M.K.Y.K.V.[dM].[am]}$$$$V2.0; SMILES CCCCCCCC(=O)N1CCC[C@H]1C(=O)N[C@@H](CCSC)C(=O)N[C@@H](CCCCN)C(=O)N[C@@H](Cc1ccc(O)cc1)C(=O)N[C@@H](CCCCN)C(=O)N[C@H](C(=O)N[C@H](CCSC)C(N)=O)C(C)C) [peptide of SEQ ID NO 28] | < 0.01 | > 10
10 | MRYKYM (HELM PEPTIDE1{M.R.Y.K.Y.[dM].[am]}$$$$V2.0; N-terminus assumed; SMILES CSCC[C@H](N)C(=O)N[C@@H](CCCNC(=N)N)C(=O)N[C@@H](Cc1ccc(O)cc1)C(=O)N[C@@H](CCCCN)C(=O)N[C@@H](Cc1ccc(O)cc1)C(=O)N[C@H](CCSC)C(N)=O) [peptide of SEQ ID NO 41] | < 0.01 | > 10
11 | RMRYRVM (HELM PEPTIDE1{R.M.R.Y.R.V.[dM].[am]}$$$$V2.0; N-terminus assumed; SMILES CSCC[C@H](NC(=O)[C@@H](N)CCCNC(=N)N)C(=O)N[C@@H](CCCNC(=N)N)C(=O)N[C@@H](Cc1ccc(O)cc1)C(=O)N[C@@H](CCCNC(=N)N)C(=O)N[C@H](C(=O)N[C@H](CCSC)C(N)=O)C(C)C) [peptide of SEQ ID NO 30] | < 0.01 | > 10
12 | HMKYKVM (HELM PEPTIDE1{H.M.K.Y.K.V.[dM].[am]}$$$$V2.0; N-terminus assumed; SMILES CSCC[C@H](NC(=O)[C@@H](N)Cc1c[nH]cn1)C(=O)N[C@@H](CCCCN)C(=O)N[C@@H](Cc1ccc(O)cc1)C(=O)N[C@@H](CCCCN)C(=O)N[C@H](C(=O)N[C@H](CCSC)C(N)=O)C(C)C) [peptide of SEQ ID NO 21] | < 0.01 | > 10
13 | WRYKVM (HELM PEPTIDE1{W.R.Y.K.V.[dM].[am]}$$$$V2.0; N-terminus assumed; SMILES CSCC[C@@H](NC(=O)[C@@H](NC(=O)[C@H](CCCCN)NC(=O)[C@H](Cc1ccc(O)cc1)NC(=O)[C@H](CCCNC(=N)N)NC(=O)[C@@H](N)Cc1c[nH]c2ccccc12)C(C)C)C(N)=O) [peptide of SEQ ID NO 3] | < 0.01 | > 10
14 | PMKYKVM (HELM PEPTIDE1{P.M.K.Y.K.V.[dM].[am]}$$$$V2.0; N-terminus assumed; SMILES CSCC[C@H](NC(=O)[C@@H]1CCCN1)C(=O)N[C@@H](CCCCN)C(=O)N[C@@H](Cc1ccc(O)cc1)C(=O)N[C@@H](CCCCN)C(=O)N[C@H](C(=O)N[C@H](CCSC)C(N)=O)C(C)C) [peptide of SEQ ID NO 25] | < 0.01 | > 10
15 | HMKYKVM (HELM PEPTIDE1{[CCCCCCCC(=O)[*:2]].H.M.K.Y.K.V.[dM].[am]}$$$$V2.0; SMILES CCCCCCCC(=O)N[C@@H](Cc1c[nH]cn1)C(=O)N[C@@H](CCSC)C(=O)N[C@@H](CCCCN)C(=O)N[C@@H](Cc1ccc(O)cc1)C(=O)N[C@@H](CCCCN)C(=O)N[C@H](C(=O)N[C@H](CCSC)C(N)=O)C(C)C) [peptide of SEQ ID NO 24] | < 0.01 | > 10
16 | HWKYKYM (HELM PEPTIDE1{[CCCC(=O)[*:2]].H.W.K.Y.K.Y.[dM].[am]}$$$$V2.0; SMILES CCCC(=O)N[C@@H](Cc1c[nH]cn1)C(=O)N[C@@H](Cc1c[nH]c2ccccc12)C(=O)N[C@@H](CCCCN)C(=O)N[C@@H](Cc1ccc(O)cc1)C(=O)N[C@@H](CCCCN)C(=O)N[C@@H](Cc1ccc(O)cc1)C(=O)N[C@H](CCSC)C(N)=O) [peptide of SEQ ID NO 37] | < 0.01 | > 10
17 | PMKYKVM (HELM PEPTIDE1{[ac].P.M.K.Y.K.V.[dM].[am]}$$$$V2.0; SMILES CSCC[C@H](NC(=O)[C@@H]1CCCN1C(C)=O)C(=O)N[C@@H](CCCCN)C(=O)N[C@@H](Cc1ccc(O)cc1)C(=O)N[C@@H](CCCCN)C(=O)N[C@H](C(=O)N[C@H](CCSC)C(N)=O)C(C)C) [peptide of SEQ ID NO 26] | < 0.01 | > 10
18 | RMRYKYM (HELM PEPTIDE1{R.M.R.Y.K.Y.[dM].[am]}$$$$V2.0; N-terminus assumed; SMILES CSCC[C@H](NC(=O)[C@@H](N)CCCNC(=N)N)C(=O)N[C@@H](CCCNC(=N)N)C(=O)N[C@@H](Cc1ccc(O)cc1)C(=O)N[C@@H](CCCCN)C(=O)N[C@@H](Cc1ccc(O)cc1)C(=O)N[C@H](CCSC)C(N)=O) [peptide of SEQ ID NO 38] | < 0.01 | > 10
